Measured values taken from the nanobody polyreactivity screen of Harvey et al. (2022).

assay: yeast display, Sf9 membrane polyspecificity reagent, FACS + sequencing; frameworks hold sequencing errors
Summary of the method: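 Nanobodies from a synthetic yeast display library (Saccharomyces cerevisiae BJ5465), induced 36–48 hours with galactose, were stained 1 hour at 4 °C with 10% biotinylated, detergent-solubilized Sf9 membrane reagent, enriched on streptavidin microbeads, then FACS-sorted. Anti-HA (expression) and streptavidin (reagent binding) fluorescence set low and high (top ~1%) gates. Polyreactivity labels come from the gate of origin. Genes were colony-PCR amplified, MiSeq 2 × 250 sequenced and filtered by CDR length.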

| Sequence | polyreactivity (PSR sort gate) |
| --- | --- |
| QVQLVESGGGLVQAGGSLRLTCAASGSTYTGYAMGWYRQAPGKERELVAAISISGGRTFYADSVKGRFTISRDNAKNTVYLQMNSLKPEDTAVYYCAAYLRGSKYSFDYWGQGTQVTVSS | high polyreactivity |
| QVQLVESGGGLVQAGGSLRLTCAASGYIFGVYAMGWYRQAPGKERELVATISSGGSTNYADSVKGRFTISRDNAKNTVYLQMNSLKPEDTAVYYCAAERYWTYYSGFVYGGDNYWGQGTQVTVSS | low polyreactivity |
| QVQLVESGGGLVQAGGSLRLTCAASGYIFNQYTMGWYRQAPGKERELDADISSGGSTKYADSVKVRFTISRDNAKNTVYLQMISRKAEDTAFYYCNAEYVYGYPTAYDWEYDYWGQGTQVTLSS | high polyreactivity |
| QVQLVESGGGLVQAGGSLRLTCAASGYIQPKNTMGWYRQAPGKERELVAAISWSGGSTFYADSVKGRFTISRDNAKNTVYLKMNSLKPVDTAVYYCAADRSWSWYYRYDYWGQGTQVTLSS | low polyreactivity |
| QVQLVESGGGLVQAGGSLRLTCAASGYTIIQYAMGWYRQAPGKERELVAGITWSGGSTYADSVKGRFTISRDNAKNTVYLQMNSLKPEATAVYYCAADDRDIYQYGTPYGSGIRYDYWGQGTQVTVSS | low polyreactivity |
| QVQLVESGGGLVQAGGSLRLTCAATGSTLYFYAMGWYRQAPGKERELVASISGTGGRTDYADSVKGRFTISRDNAKNTVYLQMNSLKPEDTAVYYCAADLIRRYGDGYWGQGTQVTVSS | high polyreactivity |
| QVQLVESGGGLVQAGGSLRLTCAPSRSIFVAYTMGWYRQAPGKERELVAAISRGGSTNYADSVKGRFTISRDNAKNTVYLQMNSLTPEETAVYYCAAKVWDGQLLYYWGQGTQVTVSS | low polyreactivity |
| QVQLVESGGGLVQAGGSLRLTCASSGITFGSYAMGWYTQAPGKERELVAAITWRGGSTFYADSVKGRFTISRDNAKITVYLQMNSLKPEDTAVYYCAATLTKYLPRYYWGHGTQVTVSS | low polyreactivity |
| QVQLVESGGGLVQAGGSLRLTCGASGFTFDSYAMGWSRQEPGKERELVAAISTIGGRTYYADSVKGRFTISRDNAKNTVYLQMNSLKPEDTAVYYCAAEQGTPSTNWYDYWGQGTQVTVSS | low polyreactivity |
| QVQLVESGGGLVQAGGSLRLTCGASGRIFRGYAMGCSRQAPGKERELVASISGGDSTYADSVKGRYTISRDNAKNTVYLQINSLKPEDTSVYYWAASSWYPALREYWGQGTQVSVSS | low polyreactivity |
| QVQLVESGGGLVQAGGSLRLTCPASGSTFHGYDMGCYRQAPGKERELVAAITSSGDDTYYADSVKGRFTISRDNAKNTVYLQMNSLKPEDTAVYYCAAEYTEGYTHDYWGQGSQVTVSS | low polyreactivity |
| QVQLVESGGGLVQAGGSLRLTCSASGSTFPSNSMGGYRQAPGKERELVAAITFRGGRTYYADSVKGRFTISRDNAKNTVYLQMNSLIPEDTAVYYCAAERWWYTVRGYGYWGQGTQVTVSS | high polyreactivity |
| QVQLVESGGGLVQAGGSLRLTFAASGSTFDYYAMGWYRQAPGKERELVAGITSDGSTYYADSVKGRFTISRDNAKNTVYLQMNSLKPEDTAVYYCDVDVDPVFYTTYYYSYYYWGQGTQVTVSS | low polyreactivity |
| QVQLVESGGGLVQAGGSLRLTSAASGRTFTSNVMGWYSQAPGKEWEVVAAISSSGGRTYYADSVKGRFTISRDNAKNTVYLQMNSLKPEDTAVYYCAGDGDPEYPRYGYWGKGTQVTVSS | high polyreactivity |
| QVQLVESGGGLVQAGGSLRLTSAASGSTIDYYAMGWYRQAPGKERELVARISKRGGSTYYADSVKGRFTISRDNAKYTVYLQMNSLKPEDTAVYFCAKRVRISYTNYHFDYWGQCTQVTVSS | high polyreactivity |
| QVQLVESGGGLVQAGGSLRRSCAASGSTFTTYAMGWYRQAPGKERELGAAITSVGSTYYEDSVKGRCTISRDNAKNTVYLQLNSLKPEDTAVYYCNVVYRDQYNDWGQGTQVTVSW | low polyreactivity |
| QVQLVESGGGLVQAGGSLRSSCAASGGTFYGYAMGWYRQAPGKERELVAAISFSGGRTYYADSVKGSFTISRDNAKNTVYLQMNSLKPEDTAVYYCAALRRYPRPNIYGYWGQGTQVTVSS | low polyreactivity |
| QVQLVESGGGLVQAGGSLRVICAASGSTFSGNAMGWSRKAPGKERELVAAISRRGGRTYYADSVKGRFTISRDNAKNTVFLQMNRLKPEDTAVYYCAATSGVYRVGIIKYDYWGQGTQVTVSS | high polyreactivity |
| QVQLVESGGGLVQAGGSLRVSCAASGFISGYYTMRWYRQAPGKEWELVAVINSGGSTYYADSVKGRFTISRDNAKNTVYLQMNSLKPEDTAVYYCAKLGGKYSRYYYWGQGTQVTVSS | low polyreactivity |
| QVQLVESGGGLVQAGGSLRVSCAASGFTFNYYAMGWYRQAAGKERELVAAISKDGTRTYYADSVKGRFTISRDNAKNTVYLQMNRQKPEDTAVYYCAAKASPAGSNYWGQGTQVTVSS | high polyreactivity |
| QVQLVESGGGLVQAGGSLRVSCAASGFTFSYYVMGWYRQAPGKERELVAAITTSGSGTYYADSVKGRFTISRDNAKNTVYLQMNSLKPEDTAVYYCAARPYRGFVSRYGYWGQGTQVTVSS | low polyreactivity |

| Sequence | polyreactivity (PSR sort gate) |
| --- | --- |
| QVQLVESGGGLVQAGGSLRVSCAASGFTFVGTAMGWYRQAPGKERELVAAITWSGGRTYYADSVKGRFTISRDKAKNTVYLQMNSLTPEDTAVYYCATRWRGRMDYWGQGTQVTVSS | high polyreactivity |
| QVQLVESGGGLVQAGGSLRVSCAASGGTFCNYAMGWNRQAPGKERELVAAITSGGGSTYYADSVKGRFTISRDIAKNTVYLQMNSLKPEDTAVYYCAARRSSYGYWGQGTQVTVSS | high polyreactivity |
| QVQLVESGGGLVQAGGSLRVSCAASGITFNEYAMGWYRQAPGKEREFVAAITFSGDSTYADSVKGRFTISRDNAKNTVYLQMNSLKPEDTAVYYCAKRGGRQTYYYWGQGTQVTVSS | high polyreactivity |
| QVQLVESGGGLVQAGGSLRVSCAASGLNFYGNAMGWYRQAPGKERELVAAISWSGGNTSYADSVKGRFTISRDNAKNTVYLQMNSLKPDDTAVYYCNADSLPSVERYGYWGQGTQVTVSS | low polyreactivity |
| QVQLVESGGGLVQAGGSLRVSCAASGLTFKYNALGWYIQAPGKERELVASISSGSTNYADSVKGRFTISRDNAKNSVYLEMNSLKPEDTSVYYCAASVSRGKRFRYGYVFKMDYWGQGTQLTVSS | low polyreactivity |
| QVQLVESGGGLVQAGGSLRVSCAASGNIFYYYAKGWSRQAPGKERELDAAISKRGGSTYYADSVKGRFTISRDIAKNTVYLQMNSLKTEVTAVYYCAADGGYADYDYWGQGTQVTVSS | high polyreactivity |
| QVQLVESGGGLVQAGGSLRVSCAASGRIFFRNAMGWYRQAPGKESELVAAITRGGGSTYYADSVKGRFTISRDNATNTVYLQMNSLKPEDTEVYYCAAGAGYSLYSAYDYWGQGTQVTVSS | low polyreactivity |
| QVQLVESGGGLVQAGGSLRVSCAASGRIFTQYATGWYRQAPAKEREMVAAINASDGSTYADSVKGRFTISRDNAKNSVYVQMNSLNPEDSAVYYCNVTGGPYDFTRWSDFDHWGQGTQVTVSS | low polyreactivity |
| QVQLVESGGGLVQAGGSLRVSCAASGRILNPNAMGWYRQAPGKERELVADISSGGSTYADSVKGRFTISRDNAKNTVYLQMNSLKPEDTAVYYCAKPGYEEFYREYDSWGQGTQVNVSS | low polyreactivity |
| QVQLVESGGGLVQAGGSLRVSCAASGRTFKKYTMGLYRQAAGKERELVPVITSGGSTYYADSVKGRFTISRDNAKNTVYLQMNSLKPEDTAVYYWAADLYYNSYGRYGRYYYWGQGTQVTVSS | high polyreactivity |
| QVQLVESGGGLVQAGGSLRVSCAASGRTFKYYARGWYRQAPGKARELVAAISGSGGSTYYADSVKGRFTISRDNAKNTVYLQMNSLKPEDTAVYYCAAAGKETSRNAYDSWGQGTQETVSS | high polyreactivity |
| QVQLVESGGGLVQAGGSLRVSCAASGRTFRGYSMGWSRPAPGKERELVAAISWRGGTTYYADSVKGRFTISRDNAKNTVYLQMNSLKPEDTAVYYCAARRYRISKTSGYWGQGTQVTVSS | high polyreactivity |
| QVQLVESGGGLVQAGGSLRVSCAASGRTFRYYEMGWYRQAPGKERELVAAISWSGGSTYYADSVKGRFTISRDNAKNSVYLQMNSLKPEDTAVYYCGAPKPIYSYPTYYYWGQGTQVTVSS | high polyreactivity |
| QVQLVESGGGLVQAGGSLRVSCAASGRTFYFNAMGWYRQAPGKERELVAVISWSGGRTYYADSVKGRFTISRDNAKNTVYLLMNSLKPEDTAVYYCAADYQSGGSRYDYWGQGTQVTVSS | high polyreactivity |
| QVQLVESGGGLVQAGGSLRVSCAASGSIFCPYTMGWNRQAPGKERELVAAITRSGGSTYYADSVKGRFTISRDNGKNTVYLQMNSLKPEDTAVFYCAARGQAYSGDRMYYWGQGTQVTVSS | high polyreactivity |
| QVQLVESGGGLVQAGGSLRVSCAASGSTIITNAMGWYRQATGKERELVAAITYSTGATYYADSVKGRFTISRDNAKNTVYLQMNSQKPEDTACYYCAALLYFFMIDYWGQGTQETVSS | low polyreactivity |
| QVQLVESGGGLVQAGGSLRVSCAASGTIFRRYAMGWYRQAPGKERELVATISSCTTTNYADSVKGRFTISRDNAKNTVYLQMNSLKPEDTAVYYCAADDYYEFYWGQGTQVTVSS | high polyreactivity |
| QVQLVESGGGLVQAGGSLRVSCASSGRTFSRNAMGWYRQAPGKEMELVATISRRGGSTNYADSVKGRFTISRDNAKNTVYLQMNSMKQEDTAVYYCAAGYRVRDDKVYGIVGPMDYWGQGTQVNVSS | high polyreactivity |
| QVQLVESGGGLVQAGGSLRVSFAASGLTFFQYGMGWYRQAPGKERELVASITRSRGRTNYADSVKGRFTISRDNAKYTVYLQMNSLKPEDTAVYYCAAYYYGSSAYGYGYNYWGQGTQVTVSS | high polyreactivity |
| QVQLVESGGGLVQAGGSLRVTCAASGNIFGYYAMGWYRQAPGKERELDAAISSGGTTSYADSVKGRFTISRDNAKNTVYLQLNSLKPEDTAVYYCAARDWYDGFYYWGQGTQVTVSS | low polyreactivity |
